Laboratory results as given in the DeepSol protein solubility set.

Test: soluble on expression in E. coli; label from the status in PepcDB or PDB records

Sequence | soluble on expression in E. coli
SASSEVARHLLFQSHMATKTTCMSSQGSDDEQIKRENIRSLTMSGHVGFESLPDQLVNRSIQQGFCFNILCVGETGIGKSTLIDTLFNTNFEDYESSHFCPNVKLKAQTYELQESNVQLKLTIVNTVGFGDQINKEESYQPIVDYIDAQFEAYLQEELKIKRSLFTYHDSRIHVCLYFISPTGHSLKTLDLLTMKNLDSKVNIIPVIAKADTVSKTELQKFKIKLMSELVSNGVQIYQFPTDDDTIAKVNAAMNGQLPFAVVGSMDEVKVGNKMVKARQYPWGVVQVENENHCDFVKLREMLICTNMEDLREQTHTRHYELYRRCKLEEMGFTDVGPENKPVSVQETYEAKRHEFHGERQRKEEEMKQMFVQRVKEKEAILKEAERELQAKFEHLKRLHQEERMKLEEKRRLLEEEIIAFSKKKATSEIFHSQSFLATGSNLRKDKDRKNSNFL | not soluble
SASVRIREAKEGDCGDILRLIRELAEFEKLSDQVKISEEALRADGFGDNPFYHCLVAEILPAPGKLLGPCVVGYGIYYFIYSTWKGRTIYLEDIYVMPEYRGQGIGSKIIKKVAEVALDKGCSQFRLAVLDWNQRAMDLYKALGAQDLTEAEGWHFFCFQGEATRKLAGK | soluble
SCEGPSRISGPIPPDPTLCPDNYRRPTSAQGRLEGNALKLDLLTSDRALDTTAPRGPCIGPGAGEILERGQRGVGDVLLQLEGISLGPGASLKRKDPKDHEKENLRRIREIQKRFREQERSREQGQPRPLKALWRSPKYDKVESRVKAQLQEPGPASGTESAHFLRAHSRCGPGLPPPHVSSPQPTPPGPEAKEPGLGVDFIRHNARAAKRAPRRHSCSLQVLAQVLEQQRQAQEHYNATQKGHVPHYLLERRDLWRREAEARKQSQPDPAMPPGHTRMPENQRLETLTKLLQSQSQLLRELVLLPAGADSLRAQSHRAELDRKLVQVEEAIKIFSRPKVFVKMDD | soluble
SDEFVNLKETELRLGLPGTDNVCEAKERVSCCNNNNKRVLSTDTEKEIESSSRKTETSPPRKAQIVGWPPVRSYRKNNIQSKKNESEHEGQGIYVKVSMDGAPYLRKIDLSCYKGYSELLKALEVMFKFSVGEYFERDGYKGSDFVPTYEDKDGDWMLIGDVPWEMFICTCKRLRIMKGSEAKGLGCGV | soluble
SDMRQHEEYIADMALDPAKKLLLTASGDGCLGVFNIKRRRFELLSEPQSGDLTSVALMKYGKKVACGSSEGTIYLFNWNGFGATSDRFALRAESIDCIVPVTENLLCTSSTDGIIRAVNILPNRVVGTVGQHAGEPVEALALSHCGHFLASSGHDQRLKFWDMTQLRTVVVDDYRRRKKKGGPLRALSSKAWSTDDFFAGLREDEEDAKAPEEVVRESDDDDDDSD | soluble
SDRFTSQSSFVVRSPKSQSSLNGLGAILQGTGFARAQDDIYTVGEYMRSRSSLDELRKILPVREFYETKGDAFSRFNGFGFRGEEEAFYQYYKNQ | not soluble
SDRFVWTSGLLEINETLVIQQRGVRIYDGEEKIKFDAGTLLLSTHRLIWRDQKNHECCMAILLSQIVFIEEQAAGIGKSAKIVVHLHPAPPNKEPGPFQSSKNSYIKLSFKEHGQIEFYRRLSEEMTQRRWENMPVSQSLQTNRGPQPGRIRAVGIVGIERKLEEKRKETDKNISEAFEDLSKLMIKAKEMVELSKSIANKIKDKQGDITEDETIRFKSYLLSMGIANPVTRETYGSGTQYHMQLAKQLAGILQVPLEERGGIMSLTEVYCLVNRARGMELLSPEDLVNACKMLEALKLPLRLRVFDSGVMVIELQSHKEEEMVASALETVSEKGSLTSEEFAKLVGMSVLLAKERLLLAEKMGHLCRDDSVEGLRFYPNLFMTQS | soluble
SDTFSTKSLALQAQKKVLSKMASKAMVAVFVDNTSSEVLDELYQATKEFTRSRKEAQRVVKNLVKVAVKLAVLLRADQLDSNELAQLQRFRGRVRSLAMTALSFHQVDFTFDRRVLATGLLECRDLLHQAIGPHLTAKSHGRINHIFSHFANGDFLAALYSPAEPYRSHLCRICDGLGRMLDEGGI | soluble
SEDNITVRFVTENDKEGWQRLWKSYQDFYEVSFPDDLDDFNFGRFLDPNIKMWAAVAVESSSEKIIGMINFFNHMTTWDFKDKIYINDLYVDENSRVKGAGGKLIQFVYDEADKLGTPSVYWCTDESNHRAQLLYVKVGYKAPKILYKRKGY | soluble
SEEDIDTRKINNSFLRDHSYATEADIISTVEFNHTGELLATGDKGGRVVIFQREQESKNQVHRRGEYNVYSTFQSHEPEFDYLKSLEIEEKINKIRWLPQQNAAYFLLSTNDKTVKLWKVSERDKRPEGYNLKDEEGRLRDPATITTLRVPVLRPMDLMVEATPRRVFANAHTYHINSISVNSDYETYMSADDLRINLWNFEITNQSFNIVDIKPANMEELTEVITAAEFHPHHCNTFVYSSSKGTIRLCDMRASALCDRHTKFFEEPEDPSNRSFFSEIISSISDVKFSHSGRYIMTRDYLTVKVWDLNMENRPIETYQVHDYLRSKLCSLYENDCIFDKFECVWNGSDSVIMTGSYNNFFRMFDRNTKRDVTLEASRENSKPRAILKPRKVCVGGKRRKDEISVDSLDFSKKILHTAWHPSENIIAVAATNNLYIFQDKVN | not soluble
SEHPQPVTTQIEKSVNTALNKNYVFNKADYQYTLTNPSLGKIVGGILYPNATGSTTVKISDKSGKIIKEVPLSVTASTEDNFTKLLDKWNDVTIGNYVYDTNDSNMQKLNQKLDETNAKNIEAIKLDSNRTFLWKDLDNLNNSAQLTATYRRLEDLAKQITNPHSTIYKNEKAIRTVKESLAWLHQNFYNVNKDIEGSANWWDFEIGVPRSITGTLSLMNNYFTDAEIKTYTDPIEHFVPDAEYFRKTLVNPFKALGGNLVDMGRVKIIEGLLRKDNTIIEKTSHSLKNLFTTATKAEGFYADGSYIDHTNVAYTGAYGNVLIDGLTQLLPIIQETDYKISNQELDMVYKWINQSFLPLIVKGELMDMSRGRSISREAASSHAAAVEVLRGFLRLANMSNEERNLDLKSTIKTIITSNKFYNVFNNLKSYSDIANMNKLLNDSTVATKPLKSNLSTFNSMDRLAYYNAKKDFGFALSLHSKRTLNYEGMNDENTRGWYTGDGMFYIYNSDQSHYSNHFWPTVNPYKMAGTTEKDAKREDTTKEFMSKHSKDAKEKTGQVTGTSDFVGSVKLNDHFALAAMDFTNWDRTLTAQKGWVILNDKIVFLGSNIKNTNGIGNVSTTIDQRKDDSKTPYTTYVNGKTIDLKQASSQQFTDTKSVFLESKEPGRNIGYIFFKNSTIDIERKEQTGTWNSINRTSKNTSIVSNPFITISQKHDNKGDSYGYMMVPNIDRTSFDKLANSKEVELLENSSKQQVIYDKNSQTWAVIKHDNQESLINNQFKMNKAGLYLVQKVGNDYQNVYYQPQTMTKTDQLAI | soluble
SFALEELPRIPDFTERAICELFELYASIESVQLPPQSSDATNSSSATAPGNIFSAERGPRYLGPRALVRFFTELGVDMRSLAALAFAWLGRWQYPCHCREEGFARGVRYALWALDRRQHNEPRRWEQVQATCSTLLETSIWPRESTALFERLRSAFPDAVLSYTQRSAEAALDFYLFAFDLNRQSPYRRSLSLTDARYLWKQFLSESCYLATPASPGTPAGVANQPWRYLEHFDAYLESRCGMAGTIISRDTWYWVLMFARETQVAGSSFFANYNQGDAWPVLLDGFVEYLRENKLLSS | soluble
SFGCLVAGRLVQTAAQQVAEDKFVFDLPDYESINHVVVFMLGTIPFPEGMGGSVYFSYPDSNGMPVWQLLGFVTNGKPSAIFKISGLKSGEGSQHPFGAMNIVRTPSVAQIGISVELLDSMAQQTPVGNAAVSSVDSFTQFTQKMLDNFYNFASSFAVSQAQMTPSPSEMFIPANVVLKWYENFQRRLAQNPLFWKT | soluble
SFQGADSQAGKSGSRSMKPPGGESSDLFGSPEEGISSSKPNRMASNIFGPTEEPKNIPKRTNPPGGKGSGIFDESTPVQTRQRLNPPGGKTSDIFGSPVTATAPLAHPNKPKDHVLLCEGEDSKSDLKAATDSTPRGEQSDKGSSKEVEHAKIPEPTPTVDSHEPRLGPRPRSHNKVLNPPGGKSSLSFY | soluble
SFQGIRQPVTVTELVDSGILRPSTVNELESGQISYDEVGERIKDFLQGSSCIAGIYNETTKQKLGIYEAMKIGLVRPGTALELLEAQAATGFIVDPVSNLRLPVEEAYKRGLVGIEFKEKLLSAERAVTGYNDPETGNIISLFQAMNKELIEKGHGIRLLEAQIATGGIIDPKESHRLPVDIAYKRGYFNEELSEILSDPSDDTKGFFDPNTEENLTYLQLKERCIKDEETGLCLLPLKEKKKQVQTS | soluble
SGLRDWLRTVCCCCGCECLEERALPEKEPLVSDNNPYSSFGATLVRDDEKNLWSMPHDVSHTEADDDRTLYNLIVIRNQQAKDSEEWQKLNYDIHTLRQVRREVRNRWKCILEDLGFQKEADSLLSVTKLSTISDSKNTRKAREMLLKLAEETNIFPTSWELSERYLFVVDRLIALDAAEEFFKLARRTYPKKPGVPCLADGQKELHYLPFPSP | soluble
SGVTGAHGFPCCGKGSVEVAEMRDDLSQHQIQEEQELEADMLEQKPQLQVDLDLDPDPDPDPELEIGQVPALLESELYPALKLEAELDTEANSNEESDFEEPMQLVCKIESVHSNMGLPTPQTFRPWSLNSNCRSFTEENHMSACHHSISAQTSKHLFWANKLIQASEHSLQRAINMQLNNGSAGQPIRSPLREAIPTNALCSEEQLQIPDAHSAPPTTSSQAPSPLLSSDLPPPIDLTELITFASSLAMASSSRMDLPSLEHMMKAPPQEALEPSTEPLLTTVEEREPENHAETLPEKPREARAPLKSWSQEDKNFAQSYFDFSKPGIKRATIKGQIQLLQPPATSPLLQGSKEDSVPPGKEKENPLLVKIHFKLSAPTIPEK | soluble
SHMAIVKVTDADFDSKVESGVQLVDFWATACGPCKMIAPVLEELAADYEGKADILKLDVDENPSTAAKYEVMSIPTLIVFKDGQPVDKVVGFQPKENLAEVLDKHL | soluble
SHMSKAKFDKAVEIVQSLPKDGPIKPTQDEQLYFYKYFKQATVGDVNISRPGLMDFTGKAKWDAWKSVEGTSKEVAYQKYVEKLLEILKKADTEESKKYIAEIEAA | soluble
SIPALHRLVTVNMIPDASNDNIMVMRSYQIQATREILQRMKEMEASGLVQKEGGYIWHTTGSGKTVTSFKVAQLLASAPRIKNVLFIVDRIDLIDQTLENFKSFAYAHFKNRIKKVNGRELKRELKRKGSSQILLISVQGLTKAVKKGLENDDWNVIIMDEAHRSASGESVKLIKKALKKTTWFGFTGTPN | not soluble
SISQQTVWNQMATVRTPLNFDSSKQSFCQFSVDLLGGGISVDKTGDWITLVQNSPISNLLRVAAWKKGCLMVKVVMSGNAAVKRSDWASLVQVFLTNSNSTEHFDACRWTKSEPHSWELIFPIEVCGPNNGFEMWSSEWANQTSWHLSFLVDNPKQSTTFDVLLGISQNFEIAGNTLMPAFSVPQANARSSENAESSA | soluble
SIVHHAKERLILCSPYFIPDESLLEAVTSACYRGVTVELFVSEQADQFAIDHAQSSYYQALLEAGVKIYQFPKPDVLHTKYMIADPDDTTGNEALGVLGSSNLDIRSFGLNYEISLMIAKGNLIHELNALTDRYRTVSFKLTLDKWNQRSWRRRYVDNVMRLTSALQ | not soluble
SIYQVAIKSLPQDWLWCETWCDDESKQRAKTIDLCNNPKTKEPKLEAAARIVPEWVTYDTEIRTLLDHLENKKKSANSVHDEL | soluble
